# System: KDR-targeted ZFN pair (artificial)
# Assay: cell_activity
# Conditions: HeLa; up to about 25% with 30 C cold shock versus 1% at 37 C
substance,measurement,value
KDR locus target,activity (% modified chromatids),25
